The Immune Epitope Database (IEDB)

The sequences below were run against HLA-A*02:01 (assay: IEDB peptide-MHC binding, purified MHC/competitive/radioactivity; ≥ and ≤ were set here for values at or beyond the usual limits of such assays). Conditions: source organism: Bordetella pertussis.

Sequence	IC50
EGKMESNKD	≥ 78.1 µM
KLLHHILPI	0.312 µM
RKMLYLIYV	5.45 µM
SLFAILSST	1.42 µM

Each sequence was assayed against HLA-B*07:02 in the same assay as above. Conditions: source organism: Bordetella pertussis.

Sequence	IC50
ARRSRVRAL	15.8 µM
NPYTSRRSV	0.274 µM
TVLAAGAGL	69.6 µM

These sequences were tested against HLA-B*35:01 in the same assay as above. Conditions: source organism: Bordetella pertussis.

Sequence	IC50
ADDPPATVY	69.9 µM
DPPATVYRY	7.2 µM
EPVKLTLTG	13.7 µM
EVRADNNFY	25.6 µM
PKPKPKPKP	64.9 µM

Each sequence was assayed against HLA-B*44:03 in the same assay as above. Conditions: source organism: Bordetella pertussis.

Sequence	IC50
PGPQPPQPQ	48.6 µM
TEVYLEHRM	2.72 µM

These sequences were tested against HLA-B*53:01 in the same assay as above. Conditions: source organism: Bordetella pertussis.

Sequence	IC50
DPPATVYRY	52.9 µM

The sequences below were run against HLA-B*57:01 in the same assay as above. Conditions: source organism: Bordetella pertussis.

Sequence	IC50
KQADRDFVW	11.3 µM
LSGEVQRKG	≥ 70.4 µM
RVRALSWLL	2.12 µM
TSRRSVASI	4.54 µM
